{
  "source": "the nanobody polyreactivity screen of Harvey et al. (2022)",
  "data": [
    {"experiment": "yeast display, Sf9 membrane polyspecificity reagent, FACS + sequencing; frameworks hold sequencing errors", "in_short": "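A nanobody's polyreactivity label depends on the gate it was sorted from. Yeast display cells were stained with 10% biotinylated, detergent-solubilized Sf9 membrane reagent for 1 hour at 4 °C, enriched on streptavidin microbeads and sorted by FACS. The low and high (top ~1%) gates were set on anti-HA fluorescence for expression and streptavidin fluorescence for reagent binding.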", "values": [
      {"sequence": "QVQLVESGGGLVQAGGSLRLSCAASGSTFYYYAMGWYSQAPGKERDLVAVISWGGGSTYYADSVKGRFTISRDNAKNTVYLQMNSLKPEDTAVYYCAAVYDAYQTTDEYDYWGQGTQVTVSS", "polyreactivity (PSR sort gate)": "low polyreactivity"},
      {"sequence": "QVQLVESGGGLVQAGGSLRLSCAASGSTFYYYVRGWYRQAPGKERELVAAINSGGSTYYADSVKGRFTISRDNAKNTVYLQMNSLKPEDTAVYYCAKSWSYWYQYYYWGQGSQVTVSS", "polyreactivity (PSR sort gate)": "low polyreactivity"},
      {"sequence": "QVQLVESGGGLVQAGGSLRLSCAASGSTHNQNAMGWSRQAPGKETELVAAISSNGGTTYYADSVKWRFTISRDNAKNTVYLQMNSLKQEDTAVYYCAADWDRYVPRSYYRVSWYDYWGQGTQVTVSS", "polyreactivity (PSR sort gate)": "low polyreactivity"},
      {"sequence": "QVQLVESGGGLVQAGGSLRLSCAASGSTIDTYAMGWYRQAPGKERELVAAIRYTGGRTYYADSVKGRCTISSDNAKNTVYLHMNSLKPEDTAVYYCNADGTKWVRETYDYWGQGTQVTVSS", "polyreactivity (PSR sort gate)": "low polyreactivity"},
      {"sequence": "QVQLVESGGGLVQAGGSLRLSCAASGSTIEDNTMGWYRQAPGKERELVAAISNSGGSTYYADSVKGRFTISRDYAKNTVYLQMISLKPEDTAVYYCAADFYDPFDYWGQGTQVTVSS", "polyreactivity (PSR sort gate)": "low polyreactivity"},
      {"sequence": "QVQLVESGGGLVQAGGSLRLSCAASGSTIEDYAMGWYRQAPGKERELVAAISWRSDITYYADSVKGRFTISRDNAKNTVYLQMNSLKPEDTAVYYCAADNSYHWLDREFDYEFDYWGQGTQVTVSS", "polyreactivity (PSR sort gate)": "high polyreactivity"},
      {"sequence": "QVQLVESGGGLVQAGGSLRLSCAASGSTIFENVMGWYRQAPGKEREFVAAINTSGGSTYYADSVKGRFTISRDNAKNTVYLQMNILKPEDTAVYYCARDSYWELDYWGQGTQVTVSS", "polyreactivity (PSR sort gate)": "low polyreactivity"},
      {"sequence": "QVQLVESGGGLVQAGGSLRLSCAASGSTIFGNVMGWYRQAPGKERELVAVITNRGGSTYYADSVKGRFTISRDNAKNTVYLQMNSLKPEDTAVYYCATRSRPRSYYYWGQGTQVTVSS", "polyreactivity (PSR sort gate)": "high polyreactivity"},
      {"sequence": "QVQLVESGGGLVQAGGSLRLSCAASGSTIFGNVMGWYRQAPGKERELVAVITNRGGSTYYADSVKGRFTISRDNAKNTVYLQMNSLTPEDTAVYYCNARPLYHFWYYSGEEYGYWGQGTQVSVSS", "polyreactivity (PSR sort gate)": "high polyreactivity"},
      {"sequence": "QVQLVESGGGLVQAGGSLRLSCAASGSTIFSYAMGWYRQAPGKERELVAAISWIDDGTYYADSVKGRFTISRDNAKNTVYLQMNSLKPEDTAVYYCAADIGAYRTWDYEYWGQGTQVTVSS", "polyreactivity (PSR sort gate)": "low polyreactivity"},
      {"sequence": "QVQLVESGGGLVQAGGSLRLSCAASGSTIGAYAMGWYRQAPGKERELVAAITFSVGSTYYADSVKGRFTISRDNAKNTVYLQMNSLKPEDTAVYYCAADYYIYRSKYYQSTIQGYYYWGQGTQVTVSS", "polyreactivity (PSR sort gate)": "high polyreactivity"},
      {"sequence": "QVQLVESGGGLVQAGGSLRLSCAASGSTIGGYAMGWYRQAPGKERELVAAISWDDVRTYYADSVKGRFTISRDNAKNTVYLLMNSLKPEDTAVYYCNTDGLIAIRGLWWVEYDYWGQGTQVTVSS", "polyreactivity (PSR sort gate)": "low polyreactivity"},
      {"sequence": "QVQLVESGGGLVQAGGSLRLSCAASGSTIGGYAMGWYRQAPGKERELVAAITRSGGRTYYADSVKGRFTISRDNAKKTVYLQMNSLKPEDTAVYFCATLVTNARYDSWGQGTQVTVSS", "polyreactivity (PSR sort gate)": "high polyreactivity"},
      {"sequence": "QVQLVESGGGLVQAGGSLRLSCAASGSTIGSYAMRLSRQAPGTERELVAVITSDGRTNYADSVKGRFTISRDNAKNTVYLQMNSLKPEDTAVYYCAAGYGRWRYGTGVYDNYYYWGQGTQVTVSS", "polyreactivity (PSR sort gate)": "low polyreactivity"},
      {"sequence": "QVQLVESGGGLVQAGGSLRLSCAASGSTINKYAMGWYRQAPGKERELVAAISRSGGSTNYADSVKGRFTISRDNAKNTVYLQMNSLKPEDTAVYYCNAGYGRWQRHDYWGQGTQVTVSS", "polyreactivity (PSR sort gate)": "high polyreactivity"},
      {"sequence": "QVQLVESGGGLVQAGGSLRLSCAASGSTINQYPMGWYRQAPGKERDLVAAITRRGGSTYYADSVKGRCTISSDNAKNTVYLQLNSLKPEDTAVYYCAAAYPYTTVSYDYWGQGTQVTVSS", "polyreactivity (PSR sort gate)": "high polyreactivity"},
      {"sequence": "QVQLVESGGGLVQAGGSLRLSCAASGSTIPGNAMGWYRQAHGKERELVASISGGGDSTYYADSVKGRFTISRDNAKNTVYLQMKSLKPEDTAVYYCAADYRQEPGYTGYYYLGQGTQVTVSS", "polyreactivity (PSR sort gate)": "low polyreactivity"},
      {"sequence": "QVQLVESGGGLVQAGGSLRLSCAASGSTIPPNAMGWYRQAPGKERELVAVISNGGSNTRYADSVKGRFTISRDNAKNTVYLQMNRLKPEDTAVYYCAADYEYSGYGYWGQGTQVTVSS", "polyreactivity (PSR sort gate)": "high polyreactivity"},
      {"sequence": "QVQLVESGGGLVQAGGSLRLSCAASGSTIPRYAMGWYRQAPGKERELVAAISGRGGSTYYADSVKGRFTISRDNAKNSFYFQLISLKPEDTAVYYCNAYRRYYTMYYWGQGTQVTVSS", "polyreactivity (PSR sort gate)": "high polyreactivity"},
      {"sequence": "QVQLVESGGGLVQAGGSLRLSCAASGSTIPSYAMGWYRPAPGKETELVASITYSDGTTRYADSVKGRFTISRDNAKNTVYLQMNSLIPEDTAVYYCNAVYYREGMDYWGQGTQVTVSS", "polyreactivity (PSR sort gate)": "low polyreactivity"},
      {"sequence": "QVQLVESGGGLVQAGGSLRLSCAASGSTIRLYAMGWYRQAPGKESELVAAISVSGGSTHYADSVKGRFTISRDNAKNTVYLQMNSLKPEYTAVYYFNAAGNPVSRYHYDYWGQGTQVTVSS", "polyreactivity (PSR sort gate)": "high polyreactivity"},
      {"sequence": "QVQLVESGGGLVQAGGSLRLSCAASGSTIRNYAMGWYRQAPGKERELVAAISSGGRTYYADSVKGRFTISRDNAKNTVYLQMNSLKPEDTAVYYCKGRSYSRMYYWGQGTQVTVSS", "polyreactivity (PSR sort gate)": "high polyreactivity"},
      {"sequence": "QVQLVESGGGLVQAGGSLRLSCAASGSTIRVYGMGWYRQAPGKERELVAAIRWIGGRTYYADSVKARFTISRDNAKNTVYLQMNSLKPEDTAVYYCNARAGPVRFDYWGQGTQVTVAS", "polyreactivity (PSR sort gate)": "low polyreactivity"},
      {"sequence": "QVQLVESGGGLVQAGGSLRLSCAASGSTIRYNAMGWYRQAPGKERELVAAISRSGGSTYYADSVKGRFTISRDNAKNTVYLQRTSLKTEDTAVYYCAADRGARGDYWGQGTQVTVSS", "polyreactivity (PSR sort gate)": "high polyreactivity"},
      {"sequence": "QVQLVESGGGLVQAGGSLRLSCAASGSTIRYNAMGWYRQAPGKERELVAAISRTGGTTYYADSVKGRFTISRDNAKNTVYLQMNSLKPEDTAVYYCNAVQAPYLRYDYWGQGTQVTVSS", "polyreactivity (PSR sort gate)": "high polyreactivity"},
      {"sequence": "QVQLVESGGGLVQAGGSLRLSCAASGSTISFLIMGWYRQAPGKERELVAAISRSGGRTYYADSVKGRFTISRDNAKNTVYFQMNSLKPEDTAVYYCAADYVSVDRIRYGYWGQGTQVTVSS", "polyreactivity (PSR sort gate)": "high polyreactivity"},
      {"sequence": "QVQLVESGGGLVQAGGSLRLSCAASGSTITRYAMGWYRQAPGKERELVAVISRSGGSTYYADSVKGRFTISRDNAKNTVYLQMNSLKPEDTAVYYCAAKYYGGRRSPYSYGYWGQGTQVTVSS", "polyreactivity (PSR sort gate)": "high polyreactivity"},
      {"sequence": "QVQLVESGGGLVQAGGSLRLSCAASGSTIVRYAMGWYRQAPGKERELVAAISGGGSTSYADSVKGRFTISRDNAKNTVYLQMNSLKPEDTAVYYCAKAGYRSEFEYWGQGTQVTVSS", "polyreactivity (PSR sort gate)": "low polyreactivity"},
      {"sequence": "QVQLVESGGGLVQAGGSLRLSCAASGSTIWSNAMGWYIQAPGKERELVAVISGGTSTNYADSVKGRFTISRDNAKNTVYLQMNSLKPEDTAVYYCAADWGSYLILINDTEMDYWGQGTQVTVSS", "polyreactivity (PSR sort gate)": "low polyreactivity"},
      {"sequence": "QVQLVESGGGLVQAGGSLRLSCAASGSTIYRYAMGGYRQAPGKERELVAAITWSGGSTYYADSVKGRFTISRDNAKNTVYLQMNSLKPADTAVYYCNAVARYYYKDQTIIHSPREDYWGQGTQVTVSS", "polyreactivity (PSR sort gate)": "low polyreactivity"},
      {"sequence": "QVQLVESGGGLVQAGGSLRLSCAASGSTIYTYAMGWSRQAPGKERELVAAINRSGGTTYYADSVKGRFTISRDNAKNTVYLQMNSLKPEDTADYYCARRRYGYDYWGQGTQVTVSS", "polyreactivity (PSR sort gate)": "high polyreactivity"},
      {"sequence": "QVQLVESGGGLVQAGGSLRLSCAASGSTIYTYVMGWYIQAPGKERELVAAISWSGSSTYYADSVKGRCTISRDNAKNTVYLQINSLKPEDTAVYYCNAKYRRGWWGVEYGYWGQGTQVTVSS", "polyreactivity (PSR sort gate)": "low polyreactivity"}
    ]}
  ]
}
